In EP4725956A1, “MODIFIED POLYPEPTIDE AND USE THEREOF IN FIELD OF ANALGESIA” (Nanjing Anji Biotechnology Co., Ltd., priority 2023, dated 2024):
Positions of bridges follow the written chain, without caps; N, C: chain ends. Non-standard residues stand in square brackets, D forms with d. Residues, ends and D or L forms follow the SMILES beside them. No end group written: not given here. Bip = N[C@@H](Cc1ccc(-c2ccccc2)cc1)C(=O)O; Hyp = O=C(O)[C@@H]1C[C@@H](O)CN1; Nle = CCCC[C@H](N)C(=O)O; Orn = NCCC[C@H](N)C(=O)O; Aib = CC(C)(N)C(=O)O

Legend:
[1] = In vitro plasma stability and predicted half-life (HPLC main peak area, Example 3); type: in vitro ADME; conditions: human plasma (EDTA anticoagulant), 37°C, sampled up to 24 h, predicted half-life calculated with Winolin
Method: The modified peptides in this study were designed with non-natural amino acid substitutions at certain non-essential positions to enhance peptide stability and improve druggability. Peptides were dissolved in deionized water to 2 mg/mL, then diluted with acetonitrile to 1 mg/mL and filtered through an organic membrane. 200 µL of the filtrate was transferred to an LC vial as the peptide control. 300 µL of human plasma (comprising EDTA as anticoagulant, Nanjing Senbeijia Biotechnology Co., Ltd., Lot No. SBJ-P-HU011-100 mL) was mixed with 300 µL acetonitrile, centrifuged at 4°C and 12,000 rpm for 5 minutes. The supernatant was filtered through an organic membrane, and 200 µL of the filtrate was transferred to an LC vial as the plasma blank control. For peptide samples, 10 mg of peptide was weighed mixed with 5 mL of human plasma and vortexed thoroughly. 300 µL of peptide-containing plasma was mixed with 300 µL acetonitrile, centrifuged at 4°C and 12,000 rpm for 5 minutes, and the supernatant was filtered through an organic membrane. 200 µL of the filtrate was transferred to an LC vial as the 0 min sample. Peptide-containing plasma was incubated in a 37°C water bath, and samples at other time points were collected using the same procedure as the 0 min sample. For peptides AJ003 and AJ003-1, the sampling time points were 0 min, 5 min, 10 min, 20 min, 30 min, 1 h, 2 h, 4 h, 6 h, 10 h, 12 h, and 24 h. For modified peptides AJ003-34, AJ003-35, AJ003-36, AJ003-37, AJ003-38, AJ003-39, AJ003-40, AJ003-41, and AJ003-42, the time points were 0 min, 10 min, 30 min, 1 h, 4 h, 6 h, 10 h, 12 h, and 24 h. All peptide sample series were analyzed by HPLC, recording the changes in main peak areas over plasma incubation time. Predicted in vitro half-lives were calculated using the pharmacokinetic software Winolin. Due to the presence of tautomers, AJ003 peak areas were difficult to integrate accurately over time. AJ003-1 is an analog of AJ003 in which the threonine at position 5 is substituted with D-threonine; its sequence differs from AJ003 by only one amino acid configuration. […] The in vitro plasma half-lives of modified peptides AJ003-34, AJ003-35, AJ003-36, AJ003-37, AJ003-38, AJ003-39, AJ003-40, AJ003-41, and AJ003-42 were 61.9 h, 45.3 h, 65.3 h, 71.0 h, 26.7 h, 43.0 h, 84.0 h, 30.0 h, and 61.4 h, respectively.

[2] = tested on: rat paclitaxel-induced chronic chemotherapy pain model; assay: Rat paclitaxel chemotherapy pain model, same dose (Example 5); type: in vivo; conditions: 1 mg/kg s.c.
Method: Male SPF (Specific Pathogen Free) SD rats weighing 180-200 g (Shanghai Institute of Planned Parenthood Research, Experimental Animal Department) were used. On the day of model induction, rats were weighed, and baseline mechanical pain thresholds were measured. Animals with large differences in body weight or pain threshold were excluded, and the remaining rats were subjected to the experimental protocol. Paclitaxel powder was dissolved in olive oil to 1 mg/mL. Each rat received an intraperitoneal injection of 2 mg/kg per dose. Four injections were administered on days 1, 3, 5, and 7. Rats in the negative control or vehicle control group received injections of the solvent used to dissolve paclitaxel. […] The blank group in Table 4 represents rats without pain modeling, and the model group represents rats with pain modeling but no drug treatment. On days 1, 3, 5, and 12, drugs were administered at fixed times. On days 1, 3, and 5, mechanical pain thresholds of the right hind paw at the corresponding time were measured at 1 h, 2.5 h, 4 h, and 5.5 h after dosing using a blunt probe. On day 12, mechanical pain thresholds were measured at 4 h and 7 h after dosing. […] AJ003-36 and AJ003-40 were thus identified as candidate molecules for further study. Paclitaxel is a widely used small-molecule chemotherapy drug that, while effective against tumors, can induce neuropathic pain in many cancer patients due to neurotoxicity. The chronic chemotherapy pain model induced in male SD rats via multiple low-dose intraperitoneal injections of paclitaxel simulates clinical chemotherapy-induced neuropathic pain. Using this model, the analgesic effects of five modified peptides, the parent peptide AJ003, and the positive control pregabalin were evaluated. […] Table 4 Dosing Scheme for Screening Analgesic Activity of Selected Modified Peptides at the Same Dose in the Paclitaxel Chemotherapy Pain Model

α7 nAChR [3] = target: α7 nAChR (Homo sapiens, UniProt P36544); assay: BLI (biolayer interferometry) affinity of peptides to α7 nAChR; type: binding; set-up: inferred from the 'similar' procedure on NTA sensors; conditions: NTA sensor, α7 nAChR 20 µg/mL, peptide 1.372-1000 nM in PBS
Text: BLI is a label-free technology that converts optical interference signals occurring on the surface of BLI biosensors into real-time response signals. By monitoring the molecular binding process in real time, the system determines association rate constants (ka or kon), dissociation rate constants (kd or koff), and initial binding rates, and calculates affinity (KD) by fitting analysis. Here are the specific procedures: NTA sensors (Sartorius) were placed in a pre-wetting tray, which was then positioned in a black 96-well plate with 200 µL PBS per well. The NTA sensors were pre-wetted for at least 15 minutes. The target protein α9 nAChR was diluted in PBS to 5 µg/mL, with 200 µL added per well. Test peptides were dissolved in PBS and serially diluted threefold, with concentrations from high to low as 1000 nM, 333.3 nM, 111.1 nM, 37.04 nM, 12.35 nM, 4.115 nM, and 1.372 nM, with an additional well with PBS only as a zeroconcentration control. After equilibrating the instrument baseline, the NTA sensor was used to immobilize the target protein α9 nAChR. Once immobilization was complete, the baseline was re-equilibrated, followed by a 5-minute association and a 5-minute dissociation phase. Affinity measurements of the test peptides were conducted sequentially using the above procedure. The procedure for measuring peptide affinity to α7 nAChR was similar, except that the α7 nAChR concentration was 20 µg/mL. Tables 2 and 3 show the BLI-determined affinities of alanine-scan peptide analogs with target proteins, which identified sites on the parent peptide suitable for modification. Subsequently, single-site non-natural amino acid substituted peptides were evaluated by BLI for target protein affinity. Finally, multi-site combinatorial modified peptides were measured for affinity by BLI, leading to the selection of high-affinity peptides for further screen and drug development potential. Table 2 Test Results for Affinity of Modified Peptides to α9 nAChR

α9 nAChR = target: T1, α9 nAChR (human, UniProt Q9UGM1 23-238); assay: BLI, α9 nAChR captured on NTA sensor, peptide 1.372-1000 nM in solution
T1 construct: also called target protein α9 nAChR; α9 nicotinic acetylcholine receptor

α7 nAChR [4] = target: T2, α7 nAChR (human, UniProt P36544 23-233); assay: BLI, α7 nAChR captured on NTA sensor, peptide in solution
T2 construct: also called target protein α7 nAChR; α7 nicotinic acetylcholine receptor
T2 sequence (P36544 23-233 limits assumed): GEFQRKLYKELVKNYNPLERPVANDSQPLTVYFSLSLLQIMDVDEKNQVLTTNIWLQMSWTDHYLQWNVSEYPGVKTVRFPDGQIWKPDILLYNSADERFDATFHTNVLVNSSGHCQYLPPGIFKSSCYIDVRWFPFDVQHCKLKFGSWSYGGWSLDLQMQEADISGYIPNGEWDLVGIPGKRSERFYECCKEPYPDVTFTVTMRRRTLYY

T1 sequence (Q9UGM1 23-238 limits assumed): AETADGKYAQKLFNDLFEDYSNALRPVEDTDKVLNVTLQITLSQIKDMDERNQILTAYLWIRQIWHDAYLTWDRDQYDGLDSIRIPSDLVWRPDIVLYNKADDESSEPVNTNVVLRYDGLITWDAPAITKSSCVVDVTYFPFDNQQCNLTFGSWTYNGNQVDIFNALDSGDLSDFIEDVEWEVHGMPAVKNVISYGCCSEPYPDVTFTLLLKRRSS

CCCC[C@H](NC(=O)[C@@H](NC(=O)[C@H]1CSSC[C@H](NC(=O)[C@H](CO)NC(=O)CN)C(=O)N[C@@H](CO)C(=O)N[C@H]([C@H](C)O)C(=O)N2C[C@H](O)C[C@H]2C(=O)N2C[C@H](O)C[C@H]2C(=O)N[C@@H](CO)C(=O)N1)C(C)C)C(=O)N[C@@H](Cc1ccc(-c2ccccc2)cc1)C(=O)N[C@@H](CCCN)C(N)=O [AJ003-34, GSCS-(D-Thr)-Hyp-Hyp-S-(D-Cys)-V-Nle-Bip-Orn-NH2 (3,9 disulfide bond)] (H-GSCS[dT][Hyp][Hyp]S[dC]V[Nle][Bip][Orn]-NH2; disulfide 3-9)
half-life at 2 mg/mL [1]: 61.9 h
ranking among the five candidate modified peptides [2]: top three analgesic candidates
Kd (α7 nAChR [3]): 360 nM

CCCC[C@H](NC(=O)[C@@H](NC(=O)[C@H]1CSSC[C@H](NC(=O)[C@H](CO)NC(=O)CN)C(=O)N[C@@H](CO)C(=O)N[C@H]([C@H](C)O)C(=O)N2C[C@H](O)C[C@H]2C(=O)N2C[C@H](O)C[C@H]2C(=O)NC(C)(C)C(=O)N1)C(C)C)C(=O)N[C@@H](Cc1ccccc1)C(=O)N[C@@H](CCCN)C(N)=O [AJ003-39, GSCS-(D-Thr)-Hyp-Hyp-Aib-(D-Cys)-V-Nle-F-Orn-NH2 (3,9 disulfide bond)] (H-GSCS[dT][Hyp][Hyp][Aib][dC]V[Nle]F[Orn]-NH2; disulfide 3-9)
half-life at 2 mg/mL [1]: 43 h
Kd (α7 nAChR [3]): 410 nM

CCCC[C@H](NC(=O)[C@@H](NC(=O)[C@H]1CSSC[C@H](NC(=O)[C@H](CO)NC(=O)CN)C(=O)N[C@@H](CO)C(=O)N[C@H]([C@H](C)O)C(=O)N2C[C@H](O)C[C@H]2C(=O)N2C[C@H](O)C[C@H]2C(=O)N[C@@H](C)C(=O)N1)C(C)C)C(=O)N[C@@H](Cc1c[nH]c2ccccc12)C(=O)N[C@@H](CCCN)C(N)=O [AJ003-41, GSCS-(D-Thr)-Hyp-Hyp-A-(D-Cys)-V-Nle-W-Orn-NH2 (3,9 disulfide bond)] (H-GSCS[dT][Hyp][Hyp]A[dC]V[Nle]W[Orn]-NH2; disulfide 3-9)
half-life at 2 mg/mL [1]: 30 h
Kd (α7 nAChR [3]): 110 nM

CCCC[C@H](NC(=O)[C@@H](NC(=O)[C@H]1CSSC[C@H](NC(=O)[C@H](CO)NC(=O)CN)C(=O)N[C@@H](CO)C(=O)N[C@H]([C@H](C)O)C(=O)N2C[C@H](O)C[C@H]2C(=O)N2C[C@H](O)C[C@H]2C(=O)NC(C)(C)C(=O)N1)C(C)C)C(=O)N[C@@H](Cc1c[nH]c2ccccc12)C(=O)N[C@@H](CCCN)C(N)=O [AJ003-42, GSCS-(D-Thr)-Hyp-Hyp-Aib-(D-Cys)-V-Nle-W-Orn-NH2 (3,9 disulfide bond)] (H-GSCS[dT][Hyp][Hyp][Aib][dC]V[Nle]W[Orn]-NH2; disulfide 3-9)
half-life at 2 mg/mL [1]: 61.4 h
Kd (α7 nAChR [3]): 21.2 nM

B1: AJ003-12 (peptide)
peptide: ASCS[dT]PPS[dC]VLYS
modifications: disulfide 3-9
notes: Printed: ASCS-(D-Thr)-PPS-(D-Cys)-VLYS (3,9 disulfide bond)
Kd (α9 nAChR): 31600 nM

B2: AJ003-14 (peptide)
peptide: GSCA[dT]PPS[dC]VLYS
modifications: disulfide 3-9
notes: Printed: GSCA-(D-Thr)-PPS-(D-Cys)-VLYS (3,9 disulfide bond)
Kd (α9 nAChR): 13900 nM

B3: AJ003-20 (peptide)
peptide: GSCS[dT]PPS[dC]VAYS
modifications: disulfide 3-9
notes: Printed: GSCS-(D-Thr)-PPS-(D-Cys)-VAYS (3,9 disulfide bond)
Kd (α9 nAChR): 16.3 nM

B4: AJ003-26 (peptide)
peptide: GSCS[dT]PPS[dC]GLYS
modifications: disulfide 3-9
notes: Printed: GSCS-(D-Thr)-PPS-(D-Cys)-GLYS (3,9 disulfide bond)
Kd (α7 nAChR [4]): 6830 nM

B5: AJ003-19 (peptide)
peptide: GSCS[dT]PPS[dC]ALYS
modifications: disulfide 3-9
notes: Printed: GSCS-(D-Thr)-PPS-(D-Cys)-ALYS (3,9 disulfide bond)
Kd (α9 nAChR): 317 nM

B6: AJ003-21 (peptide)
peptide: GSCS[dT]PPS[dC]VLAS
modifications: disulfide 3-9
notes: Printed: GSCS-(D-Thr)-PPS-(D-Cys)-VLAS (3,9 disulfide bond)
Kd (α9 nAChR): 514 nM

B7: AJ003-22 (peptide)
peptide: GSCS[dT]PPS[dC]VLYA
modifications: disulfide 3-9
notes: Printed: GSCS-(D-Thr)-PPS-(D-Cys)-VLYA (3,9 disulfide bond)
Kd (α9 nAChR): 163 nM

B8: AJ003-13 (peptide)
peptide: GACS[dT]PPS[dC]VLYS
modifications: disulfide 3-9
notes: Printed: GACS-(D-Thr)-PPS-(D-Cys)-VLYS (3,9 disulfide bond)
Kd (α9 nAChR): 6690 nM

B9: AJ003-1 (peptide)
peptide: GSCS[dT]PPS[dC]VLYS
modifications: disulfide 3-9
notes: Printed: GSCS-(D-Thr)-PPS-(D-Cys)-VLYS (3,9 disulfide bond)
Kd (α9 nAChR): 86 nM
Kd (α7 nAChR [4]): 22 nM

B10: AJ003-18 (peptide)
peptide: GSCS[dT]PPA[dC]VLYS
modifications: disulfide 3-9
notes: Printed: GSCS-(D-Thr)-PPA-(D-Cys)-VLYS (3,9 disulfide bond)
Kd (α9 nAChR): 42.6 nM

B11: AJ003-27 (peptide)
peptide: GSCS[dT]PPS[dC]VIYS
modifications: disulfide 3-9
notes: Printed: GSCS-(D-Thr)-PPS-(D-Cys)-VIYS (3,9 disulfide bond)
Kd (α7 nAChR [4]): 323 nM

B12: AJ003-30 (peptide)
peptide: GSCS[dT]PPS[dC]VLWS
modifications: disulfide 3-9
notes: Printed: GSCS-(D-Thr)-PPS-(D-Cys)-VLWS (3,9 disulfide bond)
Kd (α7 nAChR [4]): 27.8 nM

B13: AJ003-24 (peptide)
peptide: GSCS[dT]PPG[dC]VLYS
modifications: disulfide 3-9
notes: Printed: GSCS-(D-Thr)-PPG-(D-Cys)-VLYS (3,9 disulfide bond)
Kd (α7 nAChR [4]): 14000 nM
